Data published in patent US20120329717A1.

Tests used:
[1] = biological target: N-type VGCCs controlling excitatory synaptic transmission between primary afferents and dorsal horn (rat) (UniProt Q02294); assay: cell-based or functional assay
[2] = biological target: N-type VGCCs in rat brain membranes (rat) (UniProt Q02294); assay: displacement of 125I-GVIA from rat brain membranes
[3] = biological target: N-type VGCCs in rat brain membranes (rat), Q02294; assay: displacement of 125I-GVIA from rat brain membranes
[4] = biological target: N-type VGCCs controlling excitatory synaptic transmission between primary afferents and dorsal horn (rat), Q02294; assay: cell-based or functional assay
Chain of N-type VGCCs controlling excitatory synaptic transmission between primary afferents and dorsal horn (rat), Q02294 (Q02294 whole entry): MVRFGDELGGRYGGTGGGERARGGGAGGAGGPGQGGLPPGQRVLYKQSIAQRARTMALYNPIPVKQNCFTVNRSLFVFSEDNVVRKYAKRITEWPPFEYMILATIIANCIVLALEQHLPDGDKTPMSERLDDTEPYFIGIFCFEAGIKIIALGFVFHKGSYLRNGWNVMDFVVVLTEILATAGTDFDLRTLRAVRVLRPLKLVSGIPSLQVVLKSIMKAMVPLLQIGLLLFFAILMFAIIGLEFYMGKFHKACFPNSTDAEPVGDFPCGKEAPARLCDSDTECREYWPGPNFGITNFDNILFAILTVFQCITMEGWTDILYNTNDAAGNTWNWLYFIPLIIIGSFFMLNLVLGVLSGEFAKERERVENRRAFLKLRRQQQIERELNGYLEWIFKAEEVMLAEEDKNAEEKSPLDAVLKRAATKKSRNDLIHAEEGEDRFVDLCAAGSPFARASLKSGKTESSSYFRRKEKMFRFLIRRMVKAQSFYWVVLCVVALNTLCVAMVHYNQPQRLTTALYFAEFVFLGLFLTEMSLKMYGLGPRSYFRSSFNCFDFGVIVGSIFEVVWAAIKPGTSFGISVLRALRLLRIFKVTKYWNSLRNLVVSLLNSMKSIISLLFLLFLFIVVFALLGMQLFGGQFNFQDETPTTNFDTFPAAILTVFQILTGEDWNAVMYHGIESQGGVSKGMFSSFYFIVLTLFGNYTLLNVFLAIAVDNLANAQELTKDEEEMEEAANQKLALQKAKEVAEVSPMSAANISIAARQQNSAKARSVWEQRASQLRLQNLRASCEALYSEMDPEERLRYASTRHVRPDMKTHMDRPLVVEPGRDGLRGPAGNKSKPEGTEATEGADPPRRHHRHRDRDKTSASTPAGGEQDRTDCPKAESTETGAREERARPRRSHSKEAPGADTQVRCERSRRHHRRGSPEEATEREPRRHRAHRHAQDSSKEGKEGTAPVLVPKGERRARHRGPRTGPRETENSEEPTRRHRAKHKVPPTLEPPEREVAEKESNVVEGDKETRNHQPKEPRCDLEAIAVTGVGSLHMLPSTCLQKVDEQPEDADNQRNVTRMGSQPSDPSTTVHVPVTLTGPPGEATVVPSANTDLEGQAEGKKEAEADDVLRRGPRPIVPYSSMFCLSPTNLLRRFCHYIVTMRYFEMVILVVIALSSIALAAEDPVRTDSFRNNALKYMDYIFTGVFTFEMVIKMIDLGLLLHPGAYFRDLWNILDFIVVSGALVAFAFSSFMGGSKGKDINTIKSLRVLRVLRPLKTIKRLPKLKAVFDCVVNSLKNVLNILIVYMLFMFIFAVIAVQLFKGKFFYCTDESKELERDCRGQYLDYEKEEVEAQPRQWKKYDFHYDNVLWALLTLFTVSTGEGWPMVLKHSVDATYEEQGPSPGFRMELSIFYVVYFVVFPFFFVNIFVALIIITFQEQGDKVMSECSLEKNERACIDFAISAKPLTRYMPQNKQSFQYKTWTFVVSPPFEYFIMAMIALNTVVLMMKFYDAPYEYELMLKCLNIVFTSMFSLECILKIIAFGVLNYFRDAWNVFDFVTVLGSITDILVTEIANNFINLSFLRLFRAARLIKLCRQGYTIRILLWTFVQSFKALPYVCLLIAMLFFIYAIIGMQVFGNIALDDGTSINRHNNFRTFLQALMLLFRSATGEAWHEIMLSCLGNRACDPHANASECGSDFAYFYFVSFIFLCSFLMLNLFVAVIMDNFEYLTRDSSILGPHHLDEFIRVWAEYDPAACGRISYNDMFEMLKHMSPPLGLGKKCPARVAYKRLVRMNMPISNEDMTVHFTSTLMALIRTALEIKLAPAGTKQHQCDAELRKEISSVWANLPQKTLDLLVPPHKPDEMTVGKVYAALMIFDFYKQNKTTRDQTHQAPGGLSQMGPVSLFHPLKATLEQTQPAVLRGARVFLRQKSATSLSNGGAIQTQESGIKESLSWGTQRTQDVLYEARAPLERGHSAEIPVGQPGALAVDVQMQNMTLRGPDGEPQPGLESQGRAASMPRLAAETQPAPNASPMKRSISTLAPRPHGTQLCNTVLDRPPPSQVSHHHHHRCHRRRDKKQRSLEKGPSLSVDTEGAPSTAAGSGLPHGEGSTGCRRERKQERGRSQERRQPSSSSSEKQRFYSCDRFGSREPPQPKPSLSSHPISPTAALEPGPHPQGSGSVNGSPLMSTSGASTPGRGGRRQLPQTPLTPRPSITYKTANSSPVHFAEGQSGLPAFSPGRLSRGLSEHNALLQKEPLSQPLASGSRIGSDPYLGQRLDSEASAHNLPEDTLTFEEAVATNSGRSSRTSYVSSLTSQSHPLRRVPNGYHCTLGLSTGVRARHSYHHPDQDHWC

Chain of N-type VGCCs in rat brain membranes (rat), Q02294 (Q02294 whole entry): as above
Chain of N-type VGCCs in rat brain membranes (rat) (Q02294 whole entry): as above
Chain of N-type VGCCs controlling excitatory synaptic transmission between primary afferents and dorsal horn (rat) (Q02294 whole entry): as above

Molecule	EPSC amplitude recovered 10-15 min after washout, percent of control [1] [%]	affinity [2] [µM]	pIC50 [2] [M]	affinity [3] [µM]	pIC50 [3] [M]	EPSC amplitude recovered 10-15 min after washout, percent of control [4] [%]
ω-conotoxin CVIE (peptide)	78	37	10.7	–	–	–
CKSPGSSCSPTSYNCCRSCNPYTKRCY (modifications not checked) [ω-conotoxin GVIA, P01522 46-72]	–	–	–	24	10.6	–
CKGKGASCRRTSYDCCTGSCRSGRC (modifications not checked) [ω-conotoxin CVIF]	–	–	–	98	10.6	73
CKSKGAKCSKLMYDCCSGSCSGTVGRC (modifications not checked) [ω-conotoxin CVID, P58920 46-72]	–	–	–	12	11	–
